# B1: Tumstatin-44-131: residues 44 to 131 of full-length Tumstatin (SEQ ID NO:33) (protein)
# chain: FSFLFVQGNQRAHGQDLGTLGSCLQRFTTMPFLFCNVNDVCNFASRNDYSYWLSTPALMPMNMAPITGRALEPYISRCTVCEGPAIAI
# modifications: Tumstatin-45-132 (amino acids 45-132 of SEQ ID NO10)
# B2: Tum-4: residues 181 to 244 of Tumstatin (SEQ ID NO:25) (protein)
# chain: EFRASPFLECHGRGTCNYYSNSYSFWLASLNPERMFRKPIPSTVKAGELEKIISRCQVCMKKRH
# modifications: Tum-4 (amino acids 181-244 of SEQ ID NO10)
# B3: Tum-2: residues 1 to 132 of Tumstatin (SEQ ID NO:23) (protein)
# chain: GLKGKRGDSGSPATWTTRGFVFTRHSQTTAIPSCPEGTVPLYSGFSFLFVQGNQRAHGQDLGTLGSCLQRFTTMPFLFCNVNDVCNFASRNDYSYWLSTPALMPMNMAPITGRALEPYISRCTVCEGPAIAI
# modifications: Tum-2 (amino acids 1-132 of SEQ ID NO10)
# B4: Tum-1: residues 54 to 244 of Tumstatin, lacking the N-terminal 53 amino acids (SEQ ID NO:22) (protein)
# chain: QRAHGQDLGTLGSCLQRFTTMPFLFCNVNDVCNFASRNDYSYWLSTPALMPMNMAPITGRALEPYISRCTVCEGPAIAIAVHSQTTDIPPCPHGWISLWKGFSFIMFTSAGSEGTGQALASPGSCLEEFRASPFLECHGRGTCNYYSNSYSFWLASLNPERMFRKPIPSTVKAGELEKIISRCQVCMKKRH
# modifications: Tum-1 (Tumstatin N-53) (amino acids 54-244 of SEQ ID NO10)
# B5: Tumstatin: NC1 domain of the α3 chain of type IV collagen, residues 1-244 (SEQ ID NO:10) (protein, listed as Homo sapiens)
# chain: GLKGKRGDSGSPATWTTRGFVFTRHSQTTAIPSCPEGTVPLYSGFSFLFVQGNQRAHGQDLGTLGSCLQRFTTMPFLFCNVNDVCNFASRNDYSYWLSTPALMPMNMAPITGRALEPYISRCTVCEGPAIAIAVHSQTTDIPPCPHGWISLWKGFSFIMFTSAGSEGTGQALASPGSCLEEFRASPFLECHGRGTCNYYSNSYSFWLASLNPERMFRKPIPSTVKAGELEKIISRCQVCMKKRH
# B6: Canstatin: NC1 domain of the α2 chain of Type IV collagen (SEQ ID NO:6) (protein, listed as Homo sapiens)
# chain: VSIGYLLVKHSQTDQEPMCPVGMNKLWSGYSLLYFEGQEKAHNQDLGLAGSCLARFSTMPFLYCNPGDVCYYASRNDKSYWLSTTAPLPMMPVAEDEIKPYISRCSVCEAPAIAIAVHSQDVSIPHCPAGWRSLWIGYSFLMHTAAGDEGGGQSLVSPGSCLEDFRATPFIECNGGRGTCHYYANKYSFWLTTIPEQSFQGSPSADTLKAGLIRTHISRCQVCMKNL
# B7: endostatin: tumor associated angiogenesis inhibitor used as comparator (protein, UniProt P39060 1572-1754, looked up)
# Endostatin: HSHRDFQPVLHLVALNSPLSGGMRGIRGADFQCFQQARAVGLAGTFRAFLSSRLQDLYSIVRRADRAAVPIVNLKDELLFPSWEALFSGSEGPLKPGARIFSFDGKDVLRHPTWPQKSVWHGSDPNGRRLTESYCETWRTEAPSATGQASSLLGGRLLGQSAASCHHAYIVLCIENSFMTASK
# modifications: Endostatin
# What was measured:
# [1] = molecular target: T1, human αvβ3 protein (Homo sapiens, UniProt P05106+P06756); test: Competition proliferation assay with soluble αvβ3 protein, C-PAE cells; format: cell-based, bovine
# T1 construct: purchased CHEMICON Int'l, Temecula, Calif., USA
# Experimental: C-PAE cells were plated into 96-well plates as described above for the endothelial cell proliferation assay. Tumstatin at a final concentration of 0.1 μg/ml was incubated with varying concentrations (0, 0.008, 0.08, 0.8, 1.6 and 2.4 μg/ml) of human αvβ3 protein (CHEMICON Int'l, Temecula, Calif., USA) for 30 minutes at room temperature. This mixture was then added into the wells, and incubated for 48 hours. The proliferation assay was then performed using the methylene blue staining method, as described above for the endothelial cell proliferation assay.
# The integrin αvβ3 was then investigated for its ability to reverse the anti-proliferative effects of Tumstatin and Tum-2. Tumstatin and Tum-2 were incubated with αvβ3 protein for 30 minutes, and added to C-PAE cells which were plated in 96-well plates and incubated overnight with growth media. After incubation for 48 hours, the cell number was determined by methylene blue staining.
# Integrin αvβ3 was investigate for its ability to reverse the anti-proliferative affects of peptide T3. T3 peptide was incubated with 0, 0.001, 0.01, 0.1, 0.5, or 1.0 μg/ml αvβ3 integrin protein (CHEMICON Int'l, Temecula, Calif., USA) for 30 minutes at room temperature, and was then added, at 20 μg/ml final concentration, to C-PAE cells that had been grown in 96-well plates in growth media. After 48 hours of additional incubation, cell number was determined by the methylene blue assay. The results are shown in FIG. 43C, which is a histogram showing the growth of C-PAE cells (y-axis) when treated with T3 peptide that had been pre-incubated with varying concentrations (x-axis) of αvβ3 integrin.
# Soluble αvβ3 integrin protein reversed the anti-proliferative effects of Tumstatin-44-131. This was shown by a competition proliferation assay as described above in Example 26. […] E. Coli-expressed Tumstatin-44-131 was then incubated with αvβ3 integrin protein for 30 minutes, and then added to C-PAE cells with 20% FCS. After 48 hours, cell proliferation was determined by methylene blue staining. The anti-proliferative affect of Tumstatin-44-131 was reversed dose-dependently with increasing concentrations of αvβ3 soluble protein.
# [2] = tested on: Caspase-3 in C-PAE cells; test: Caspase-3 assay; format: cell-based, bovine; settings: for effect on Caspase-3 activity: 5 μg/ml
# Experimental: Tumstatin also altered cell morphology of C-PAE cells as monitored by phase contrast microscopy. After treating cells with 20 μg/ml of Tumstatin in the presence of 10% FCS for 24 hours on fibronectin-coated plates, the typical morphological features of apoptotic cells, membrane blebbing, cytoplasmic shrinkage, and chromatin condensation could be observed. […] Caspase-3 assay: Caspase-3 (CPP32) is an intracellular protease activated at the early stage of apoptosis, and initiates cellular breakdown by degrading structural and DNA repair proteins (Casciola-Rosen, L. et al., 1996, J. Exp. Med. 183:1957-64; Salvesen, G. S. et al., 1997, Cell 91:443-46). The protease activity of Caspase-3 was measured spectrophotometrically by detection of the chromophore (p-nitroanilide) cleaved from the labeled substrate (DEVD-pNA). C-PAE cells or PC-3 cells (0.5×10^6 per well) were plated onto a 6-well plate precoated with fibronectin (10 μg/ml) in DMEM supplemented with 10% FCS, and incubated overnight. The next day, the medium was replaced with DMEM containing 2% FCS and then incubated overnight at 37° C. Then cells were then stimulated with bFGF (3 ng/ml) in DMEM supplemented with 2% FCS, and also containing either TNF-α (80 ng/ml, positive control) or Tumstatin (10 μg/ml), and incubated for 24 hours. Controls received PBS buffer. After 24 hours, the supernatant cells were collected, and attached cells were trypsinized and combined with the supernatant cells. Cells were counted and resuspended in cell lysis buffer (Clontech) at a concentration of 4×10^7 cells/ml. The rest of the protocol followed the manufacturer's instructions (Clontech). A specific inhibitor of Caspase-3, DEVD-fmk (Asp-Glu-Val-Asp-fluoromethyl ketone) was used to confirm the specificity of the assay. The absorbance was measured in a microplate reader (Bio-Rad, Hercules, Calif., USA) at 405 nm. The assay was repeated three times for each cell type.
# Apoptosis was also evaluated by measuring Caspase-3 activity as described in Example 27, above. The results are shown in FIG. 35, which is a histogram showing Caspase-3 activity as a measure of absorbance at OD405 (y-axis) of C-PAE cells treated (x-axis) with 5 μg/ml Tum-1, Tum-2, Tum-3 or Tum-4, or 80 ng/ml TNF-α or PBS buffer (control).
# Caspase-3 activity was also assayed as described above. DEVD-fmk, a specific caspase-3 inhibitor, was used as an internal control to show specificity of Tumstatin-44-131. TNF-α (80 ng/ml) was used as a positive control. The experiments were repeated three times.
# The protease activity of Caspase-3 in cells treated with T3 peptide was measured spectrophotometrically by detection of the chromophore (p-nitroanilide) cleaved from the labeled substrate (DEVD-pNA). […] In PC-3 nonendothelial cells, there was no difference in Caspase-3 activity between control treatments and T3 peptide-treated cells.
# [3] = tested on: C-PAE; test: Endothelial tube formation assay (Table 4); format: cell-based, bovine
# Experimental: Deletion fragments of tumstatin were cloned into bacterial expression vectors, expressed, purified using nickel chromoatography, and then analyzed for in vitro anti-angiogenic, and associated, activity. Special efforts were made to ensure the removal of contaminating endotoxins from the protein preparations. Full-length Tumstatin, Tumstatin-N53 and two additional deletion mutants (Tum-2C and Tum-KE) were made and tested. The deletion mutants were tested for endothelial cell proliferation, cell cycle progression, apoptosis, and endothelial tube formation.
# [4] = tested on: PC-3 tumors; settings: for tumor volume on day 10: 20 mg/kg i.p. daily for 10 days, control 202.8±50.0
# Experimental: In a second PC-3 experiment, PC-3 cells were harvested from culture and 3 million cells were injected into 6- to 7-week-old athymic nude mice, and tumors were allowed to grow subcutaneously for approximately 2 weeks after which the animals were divided into groups of four mice. Experimental groups (4 mice) were injected daily I.P. with Canstatin at a dosage of 3 mg/kg in a total volume of 0.2 ml of PBS or endostatin at a dosage of 8 mg/kg in the same volume of PBS. The control group (4 mice) received equal volumes of PBS each day. Tumor length and width were measured using a Vernier caliper and the tumor volume was calculated using the standard formula: length×width^2×0.52. Tumor volumes ranged from 26 mm^3 to 73 mm^3, and the calculated tumor volume on a given day was divided by the volume on treatment day 0 to produce a fractional tumor volume (V/V0), as described above.
# T1 sequence (P06756 31-889 limits assumed): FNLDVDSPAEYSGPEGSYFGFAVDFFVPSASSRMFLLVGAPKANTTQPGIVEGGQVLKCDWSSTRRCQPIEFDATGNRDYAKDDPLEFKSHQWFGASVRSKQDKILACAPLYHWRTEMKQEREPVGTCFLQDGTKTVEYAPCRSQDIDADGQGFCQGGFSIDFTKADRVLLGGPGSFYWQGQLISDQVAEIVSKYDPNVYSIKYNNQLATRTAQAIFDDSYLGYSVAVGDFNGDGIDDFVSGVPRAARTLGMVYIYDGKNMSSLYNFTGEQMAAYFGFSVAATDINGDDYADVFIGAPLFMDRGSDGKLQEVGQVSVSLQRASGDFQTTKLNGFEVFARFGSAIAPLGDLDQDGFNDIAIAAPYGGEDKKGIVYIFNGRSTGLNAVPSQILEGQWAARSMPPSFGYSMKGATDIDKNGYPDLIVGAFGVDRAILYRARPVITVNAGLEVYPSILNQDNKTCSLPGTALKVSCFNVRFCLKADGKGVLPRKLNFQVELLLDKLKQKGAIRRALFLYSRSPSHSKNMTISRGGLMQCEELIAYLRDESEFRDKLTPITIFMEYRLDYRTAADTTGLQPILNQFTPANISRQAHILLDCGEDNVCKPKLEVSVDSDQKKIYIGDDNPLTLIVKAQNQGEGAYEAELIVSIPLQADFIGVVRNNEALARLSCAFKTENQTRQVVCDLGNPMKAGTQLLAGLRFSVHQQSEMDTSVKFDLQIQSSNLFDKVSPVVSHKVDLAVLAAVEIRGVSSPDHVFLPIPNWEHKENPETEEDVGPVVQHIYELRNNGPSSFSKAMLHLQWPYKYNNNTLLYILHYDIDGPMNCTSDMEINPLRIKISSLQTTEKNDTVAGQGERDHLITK
# T1 sequence (P06756 891-1048 partner limits assumed): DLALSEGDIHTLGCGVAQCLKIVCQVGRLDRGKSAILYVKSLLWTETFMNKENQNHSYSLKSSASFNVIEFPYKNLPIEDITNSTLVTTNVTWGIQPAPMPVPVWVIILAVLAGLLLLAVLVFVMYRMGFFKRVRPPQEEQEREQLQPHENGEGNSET
# T1 sequence (P05106 27-788): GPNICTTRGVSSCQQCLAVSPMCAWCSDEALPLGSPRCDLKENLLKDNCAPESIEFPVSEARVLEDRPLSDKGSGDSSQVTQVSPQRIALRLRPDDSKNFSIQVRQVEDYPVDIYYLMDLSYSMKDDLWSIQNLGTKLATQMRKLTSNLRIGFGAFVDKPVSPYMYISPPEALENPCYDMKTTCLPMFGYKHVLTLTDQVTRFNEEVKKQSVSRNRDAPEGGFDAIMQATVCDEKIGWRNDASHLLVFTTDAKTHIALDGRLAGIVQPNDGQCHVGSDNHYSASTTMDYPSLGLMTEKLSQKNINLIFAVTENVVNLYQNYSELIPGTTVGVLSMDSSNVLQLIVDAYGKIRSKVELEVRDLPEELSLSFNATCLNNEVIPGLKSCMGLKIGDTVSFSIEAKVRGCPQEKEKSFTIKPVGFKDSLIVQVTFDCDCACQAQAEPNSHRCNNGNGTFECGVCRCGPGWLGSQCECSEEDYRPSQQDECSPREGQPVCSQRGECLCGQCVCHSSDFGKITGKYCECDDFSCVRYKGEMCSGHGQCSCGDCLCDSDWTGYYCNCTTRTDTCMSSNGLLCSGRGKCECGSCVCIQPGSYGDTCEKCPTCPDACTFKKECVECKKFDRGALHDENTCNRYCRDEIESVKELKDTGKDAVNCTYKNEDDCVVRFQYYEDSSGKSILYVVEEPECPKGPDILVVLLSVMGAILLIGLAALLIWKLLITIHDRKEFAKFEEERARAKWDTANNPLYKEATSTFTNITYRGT
molecule,measurement,setting,value
LQRFTTMPFLFCNVNDVCNF [T3],anti-proliferative effect after pre-incubation with αvβ3 integrin protein,[1]; peptide 20 μg/ml,significantly decreased
same,fold increase in Caspase-3 activity,"[2]; 50 μg/ml T3 peptide, TNF-α 80 ng/ml",3.6 fold
same,fold increase in Caspase-3 activity,[2]; T3 peptide at 10 mg/ml (so in the source),1.6 fold
B1,reversal of anti-proliferative effect by soluble αvβ3 protein,"[1]; αvβ3 protein at 1 μg/ml, 20% FCS",65.9%
same,fold increase in Caspase-3 activity,"[2]; 10 μg/ml E. Coli-expressed Tumstatin-44-131, TNF-α 80 ng/ml",4.5 fold
same,Tube (Endothelial tube formation assay),[3],active
B2,effect on Caspase-3 activity,[2],did not
B3,recovery of anti-proliferative effect by soluble αvβ3 protein,[1]; 2 g/ml αvβ3 protein (so in the source),74.1%
same,effect on Caspase-3 activity,[2],increased
B4,effect on Caspase-3 activity,[2],increased
same,Tube (Endothelial tube formation assay),[3],active
same,anti-tumor activity,"[4]; PC3 prostate xenograft model, 5 mg or 20 mg per kilogram",substantial anti-tumor activity
B5,reversal of anti-proliferative effect by soluble αvβ3 protein,"[1]; αvβ3 at 2.4 μg/ml (3-fold molar excess), Tumstatin 0.1 μg/ml",43.1%
same,Tube (Endothelial tube formation assay),[3],active
same,tumor volume on day 10,[4],82.9±25.2 mm^3
B6,tumor suppression compared with endostatin,[4]; 3 mg/kg Canstatin,same suppressive effect as 8 mg/kg of endostatin
same,"treated tumors, fold less than placebo",[4]; athymic (nu/nu) mice,2.4 fold
same,condition of mice during treatment,"[4]; mouse, in vivo",appeared healthy with no signs of wasting
B7,tumor suppression,[4]; 5 mg/kg endostatin,not able to suppress tumor growth
same,tumor volume on day 10,[4],68.9±16.7 mm^3

# Reference: patent US7387779B2, “Anti-angiogenic proteins and fragments and methods of use thereof” (Beth Israel Deaconess Medical Center, priority 1998, dated 2008)
